Measured values taken from US20160264649A1 (published 2016).

B1: 1456_P20 (PG20) (antibody, human IgG1, kappa, V domains shown)
VH: QVRLVQSGPEVKKPGSSVTVSCQASGGTFSSYAFTWVRQAPGQGLEWLGMVTPIFGEAKYSQRFEGRVTITADESTSTTSIELRGLTSEDTAIYYCARDRRAVPIATDNWLDPWGQGTLVTVSS
VL: DIQLTQSPSSLSASVGDRVSITCRASQTINNYLNWYQQTPGKAPKLLIYGASNLQNGVPSRFSGSGSGTDFTLTISSLQPEDFATYYCQQSFSTPRTFGQGTRLDIKR
B2: 1460_G14 (PGG14) (antibody, human IgG1, kappa, V domains shown)
VH: QVLLVQSGTEVKKPGSSVKVSCQASGGAFSSYAFSWVRQAPGQGLEWMGMITPVFGETKYAPRFQGRLTLTAEESLSTTYMELRSLTSDDTAFYYCTRDRRVVPMATDNWLDPWGQGTLVTVSS
VL: DIQLTQSPSSLSASVGDRVTVTCRASQTIHTYLNWYQQIPGKAPKLLIYGASTLQSGVPSRFSGSGSGTDFTLTINSLQPEDFATYYCQQSYSTPRTFGQGTRLDIKR
B3: 1496_C09 (PG9) (TCN-109) (antibody, V domains shown)
VH: QRLVESGGGVVQPGSSLRLSCAASGFDFSRQGMHWVRQAPGQGLEWVAFIKYDGSEKYHADSVWGRLSISRDNSKDTLYLQMNSLRVEDTATYFCVREAGGPDYRNGYNYYDFYDGYYNYHYMDVWGKGTTVTVSS
VL: QSALTQPASVSGSPGQSITISCNGTSNDVGGYESVSWYQQHPGKAPKVVIYDVSKRPSGVSNRFSGSKSGNTASLTISGLQAEDEGDYYCKSLTSTRRRVFGTGTKLTVLG
B4: 1496 C09 γ3 017 + 1496 C09 λ3 024 (antibody, V domains shown)
VH: QRLVESGGGVVQPGSSLRLSCAASGFDFSRQGMHWVRQAPGQGLEWVAFIKYDGSEKYHADSVWGRLSISRDNSKDTLYLQMNSLRVEDTATYFCVREAGGPDYRNGYNYYDFYDGYYNYHYMDVWGKGTTVTVSS
VL: QSALTQPASVSGSPGQTITISCNGTSSDVGGFDSVSWYQQSPGKAPKVMVFDVSHRPSGISNRFSGSKSGNTASLTISGLHIEDEGDYFCSSLTDRSHRIFGGGTKVTVLG
B5: 1443_C16 (PG16) (TCN-116) (antibody, V domains shown)
VH: QEQLVESGGGVVQPGGSLRLSCLASGFTFHKYGMHWVRQAPGKGLEWVALISDDGMRKYHSDSMWGRVTISRDNSKNTLYLQFSSLKVEDTAMFFCAREAGGPIWHDDVKYYDFNDGYYNYHYMDVWGKGTTVTVSS
VL: QSALTQPASVSGSPGQTITISCNGTSSDVGGFDSVSWYQQSPGKAPKVMVFDVSHRPSGISNRFSGSKSGNTASLTISGLHIEDEGDYFCSSLTDRSHRIFGGGTKVTVLG
B6: 1495_C14 (PGC14) (antibody, human IgG1, lambda, V domains shown)
VH: DGHLVQSGVEVKKTGATVKISCKVSGYSFIDYYLHWVQRAPGKGLEWVGLIDPENGEARYAEKFQGRVTIIADTSIDTGYMEMRSLKSEDTAVYFCAAGAVGADSGSWFDPWGQGTLVTVSS
VL: SYELTQPPSVSVSPGQTASITCSGSKLGDKYVSWYQLRPGQSPILVMYENDRRPSGIPERFSGSNSGDTATLTISGTQALDEADFYCQAWETTTTTFVFFGGGTQLTVLG

Tests used:
Test in all cases: cell-based or functional assay
HIV-1 JR-CSF Env (gp160) = HIV-1 JR-CSF Env (gp160) (HIV-1 isolate JR-CSF, UniProt P20871 32-848)
Sequence of HIV-1 JR-CSF Env (gp160) (P20871 32-848): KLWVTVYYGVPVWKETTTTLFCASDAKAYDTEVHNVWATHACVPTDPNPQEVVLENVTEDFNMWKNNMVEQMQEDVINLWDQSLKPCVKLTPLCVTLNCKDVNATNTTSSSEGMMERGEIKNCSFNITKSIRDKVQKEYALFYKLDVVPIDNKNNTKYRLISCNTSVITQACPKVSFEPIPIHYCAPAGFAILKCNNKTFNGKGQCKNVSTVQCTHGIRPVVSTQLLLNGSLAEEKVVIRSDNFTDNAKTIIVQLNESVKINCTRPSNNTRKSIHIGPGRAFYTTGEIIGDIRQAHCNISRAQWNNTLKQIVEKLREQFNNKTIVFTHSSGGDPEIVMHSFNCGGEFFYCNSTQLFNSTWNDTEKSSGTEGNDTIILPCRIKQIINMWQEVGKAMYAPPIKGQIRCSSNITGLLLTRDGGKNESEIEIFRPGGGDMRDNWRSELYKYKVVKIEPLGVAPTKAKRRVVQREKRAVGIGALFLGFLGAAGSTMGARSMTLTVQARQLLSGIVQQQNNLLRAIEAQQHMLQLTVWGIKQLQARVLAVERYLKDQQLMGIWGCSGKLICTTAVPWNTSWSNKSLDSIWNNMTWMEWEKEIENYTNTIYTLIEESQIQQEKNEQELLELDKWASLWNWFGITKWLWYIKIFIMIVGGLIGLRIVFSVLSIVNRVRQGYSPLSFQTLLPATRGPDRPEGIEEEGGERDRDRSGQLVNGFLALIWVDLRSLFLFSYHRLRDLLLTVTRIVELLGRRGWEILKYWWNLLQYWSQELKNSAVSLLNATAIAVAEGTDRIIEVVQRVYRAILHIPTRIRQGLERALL

HIV-1 93IN905 Env = HIV-1 93IN905 Env (HIV-1 strain 93IN905)
HIV-1 92TH021 Env = HIV-1 92TH021 Env (HIV-1 strain 92TH021)
HIV-1 IAVI_C22 Env = HIV-1 IAVI_C22 Env (HIV-1 strain IAVI C22)
HIV-1 SF162 Env [1] = molecular target: T1, HIV-1 SF162 Env (HIV-1 strain SF162, UniProt P19550 32-847)
HIV-1 NL43 Env = HIV-1 NL43 Env (HIV-1 strain NL43)
aMLV Env = aMLV Env (aMLV)
HIV-1 92BR020 Env = HIV-1 92BR020 Env (HIV-1 strain 92BR020)
HIV-1 94UG103 Env = HIV-1 94UG103 Env (HIV-1 strain 94UG103)
HIV-1 SF162 Env [2] = molecular target: T1, HIV-1 SF162 Env; remark: listed apart in the source

Binder | IC50 neutralization, 1 hour virus/Ab incubation (HIV-1 JR-CSF Env (gp160)) [µg/mL] | IC50 neutralization, 18 hour virus/Ab incubation (HIV-1 JR-CSF Env (gp160)) [µg/mL] | IC50 neutralization, 1 hour virus/Ab incubation (HIV-1 93IN905 Env) [µg/mL] | IC50 neutralization, 18 hour virus/Ab incubation (HIV-1 93IN905 Env) [µg/mL] | IC50 neutralization, 1 hour virus/Ab incubation (HIV-1 92TH021 Env) [µg/mL] | IC50 neutralization, 18 hour virus/Ab incubation (HIV-1 92TH021 Env) [µg/mL] | IC50 neutralization, 1 hour virus/Ab incubation (HIV-1 IAVI_C22 Env) [µg/mL] | IC50 neutralization, 18 hour virus/Ab incubation (HIV-1 IAVI_C22 Env) [µg/mL] | IC50 neutralization, 1 hour virus/Ab incubation (HIV-1 SF162 Env [1]) [µg/mL] | IC50 neutralization, 18 hour virus/Ab incubation (HIV-1 SF162 Env [1]) [µg/mL] | IC50 neutralization, 1 hour virus/Ab incubation (HIV-1 NL43 Env) [µg/mL] | IC50 neutralization, 18 hour virus/Ab incubation (HIV-1 NL43 Env) [µg/mL] | IC50 neutralization, 1 hour virus/Ab incubation (aMLV Env) [µg/mL] | IC50 neutralization, 18 hour virus/Ab incubation (aMLV Env) [µg/mL] | IC50 neutralization, 1 hour virus/Ab incubation (HIV-1 92BR020 Env) [µg/mL] | IC50 neutralization, 18 hour virus/Ab incubation (HIV-1 92BR020 Env) [µg/mL] | IC50 neutralization, 1 hour virus/Ab incubation (HIV-1 94UG103 Env) [µg/mL] | IC50 neutralization, 18 hour virus/Ab incubation (HIV-1 94UG103 Env) [µg/mL] | Neutralization Index SF162 (clonal H and L transfectant) (HIV-1 SF162 Env [2])
B1 | > 50 | > 50 | > 50 | 3.84 | > 50 | > 50 | > 50 | > 50 | 0.195 | 0.0661 | 0.2 | 0.05 | > 50 | > 50 | > 50 | > 50 | > 50 | > 50 | –
B2 | – | – | > 50 | 3.17 | > 50 | > 50 | > 50 | > 50 | – | – | 0.17 | 0.05 | > 50 | > 50 | > 50 | > 50 | > 50 | > 50 | 39.4
B3 | – | – | 0.144 | 0.0619 | 0.0612 | 0.0571 | 24.9 | 2.11 | > 50 | > 50 | 0.294 | 38 | > 50 | > 50 | > 50 | > 50 | 0.334 | 0.0942 | –
B4 | – | – | – | – | – | – | – | – | – | – | – | – | – | – | – | – | – | – | 0.94
B5 | < 0.0025 | < 0.0025 | 0.33 | 0.255 | 0.136 | 0.0435 | 0.114 | 0.106 | > 50 | > 50 | < 0.0025 | 4.99 | > 50 | > 50 | > 50 | > 50 | 0.0211 | 0.0085 | 0.67
B6 | > 50 | > 50 | > 50 | 0.146 | > 50 | > 50 | > 50 | 13.4 | 0.0069 | < 0.0025 | 0.35 | 0.15 | > 50 | > 50 | 1.17 | 0.244 | > 50 | > 50 | –
